Results taken from patent publication US20250011363A1, “OPTIMIZED SHORTENED PEPTIDE THAT BINDS TO ACETYLCHOLINE RECEPTOR, AND USE THEREOF” (SKINMED CO., LTD., priority 2021, published 2025).

These substances were tested against acetylcholine receptor (Homo sapiens, UniProt P02708) (assay: SPR binding affinity (RU) of optimized 5mer/6mer/7mer peptides, Examples 6-7). Conditions: SPR, Resonance Units; peptides tested at 10 μM; 6mer-2 Bottom sequence.
Method in brief: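 600 peptides per series (5mer, 6mer-1, 6mer-2), made from high- or low-frequency amino acid combinations, are screened by SPR at 10 μM; binding is recorded in RU.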

acetylcholine receptor, sequence (P02708 21-457): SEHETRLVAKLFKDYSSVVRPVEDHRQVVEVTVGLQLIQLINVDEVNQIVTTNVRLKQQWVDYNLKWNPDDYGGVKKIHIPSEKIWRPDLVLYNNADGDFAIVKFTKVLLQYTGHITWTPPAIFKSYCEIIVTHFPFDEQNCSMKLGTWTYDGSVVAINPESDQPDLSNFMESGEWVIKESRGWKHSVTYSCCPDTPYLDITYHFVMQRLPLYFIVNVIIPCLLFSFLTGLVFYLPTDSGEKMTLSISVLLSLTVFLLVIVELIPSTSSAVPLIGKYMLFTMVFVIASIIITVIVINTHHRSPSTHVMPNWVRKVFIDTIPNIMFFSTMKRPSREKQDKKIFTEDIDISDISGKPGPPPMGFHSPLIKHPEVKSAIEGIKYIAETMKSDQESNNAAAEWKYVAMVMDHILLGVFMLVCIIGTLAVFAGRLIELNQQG

Substance	Binding affinity
6mer-2-624 (KPPIRK)	33 Ru
6mer-2-625 (RFPDKK)	33 Ru
6mer-2-626 (KNSEKK)	33 Ru
6mer-2-627 (KKTARR)	33 Ru
6mer-2-628 (RKSFKR)	30 Ru
6mer-2-629 (RFCWKK)	32 Ru
6mer-2-630 (RYAFRR)	27 Ru
6mer-2-631 (KYCMKR)	16 Ru
6mer-2-632 (KYDIKR)	12 Ru
6mer-2-633 (KYAVKR)	17 Ru
6mer-2-634 (RYEHRK)	33 Ru
6mer-2-635 (KECVRR)	11 Ru
6mer-2-636 (KMAPKR)	21 Ru
6mer-2-637 (RPPVRK)	32 Ru
6mer-2-638 (RCWAKR)	30 Ru
6mer-2-639 (KHTVKK)	23 Ru
6mer-2-640 (KFKKKR)	21 Ru
6mer-2-641 (REEFRR)	12 Ru
6mer-2-642 (KTENKK)	16 Ru
6mer-2-643 (KANPKK)	12 Ru
6mer-2-644 (REPNRR)	12 Ru
6mer-2-645 (RIKVKK)	15 Ru
6mer-2-646 (RAAPRR)	32 Ru
6mer-2-647 (KTEPKR)	19 Ru

Substance	Binding affinity
6mer-2-648 (RYPDRK)	23 Ru
6mer-2-649 (KFDVRK)	31 Ru
6mer-2-650 (RFKARK)	18 Ru
6mer-2-651 (KNADRR)	21 Ru
6mer-2-652 (RTTMRK)	16 Ru
6mer-2-653 (KIEMKR)	20 Ru
6mer-2-654 (RMPEKR)	20 Ru
6mer-2-655 (KIWFRR)	31 Ru
6mer-2-656 (KADPRR)	11 Ru
6mer-2-657 (RKHERK)	32 Ru
6mer-2-658 (RYWVKK)	23 Ru
6mer-2-659 (KIPNKR)	22 Ru
6mer-2-660 (RHKDRK)	16 Ru
6mer-2-661 (RMKAKK)	29 Ru
6mer-2-662 (KAHPKK)	11 Ru
6mer-2-663 (KFAGRR)	24 Ru
6mer-2-664 (KCCWKK)	11 Ru
6mer-2-665 (KCAERR)	18 Ru
6mer-2-666 (KPMDRR)	25 Ru
6mer-2-667 (KHDMRR)	25 Ru
6mer-2-668 (RFCNKK)	13 Ru
6mer-2-669 (KNMWRK)	15 Ru
6mer-2-670 (RKWHKR)	33 Ru
6mer-2-671 (RDWIRR)	27 Ru

Substance	Binding affinity
6mer-2-672 (KIDDRK)	20 Ru
6mer-2-673 (RFCGRK)	23 Ru
6mer-2-674 (KKWERK)	26 Ru
6mer-2-675 (RMKWRK)	14 Ru
6mer-2-676 (KCTAKK)	14 Ru
6mer-2-677 (RENWKK)	28 Ru
6mer-2-678 (KEWWRR)	32 Ru
6mer-2-679 (RYSAKK)	20 Ru
6mer-2-680 (KNHGKR)	15 Ru
6mer-2-681 (RDTWRR)	33 Ru
6mer-2-682 (RNMERR)	33 Ru
6mer-2-683 (KTEIRK)	33 Ru
6mer-2-684 (RYTMKK)	14 Ru
6mer-2-685 (KFHNRK)	15 Ru
6mer-2-686 (KTWEKK)	21 Ru
6mer-2-687 (KADGRK)	16 Ru
6mer-2-688 (RPMFRK)	13 Ru
6mer-2-689 (RDKERR)	24 Ru
6mer-2-690 (KFTMRK)	13 Ru
6mer-2-691 (RHKMRK)	15 Ru
6mer-2-692 (KYTNRR)	29 Ru
6mer-2-693 (KNTIRR)	16 Ru
6mer-2-694 (KDSIRK)	22 Ru
6mer-2-695 (KCWWRR)	28 Ru

Substance	Binding affinity
6mer-2-696 (KFTKKK)	20 Ru
6mer-2-697 (KCAVKK)	19 Ru
6mer-2-698 (KCEDKK)	27 Ru
6mer-2-699 (KNAGKR)	23 Ru
6mer-2-700 (RPWHKK)	15 Ru
6mer-2-701 (KTWAKR)	23 Ru
6mer-2-702 (KEMIKR)	18 Ru
6mer-2-703 (RTMHKR)	14 Ru
6mer-2-704 (KDWHRK)	20 Ru
6mer-2-705 (RENFKK)	11 Ru
6mer-2-706 (KFTDRK)	23 Ru
6mer-2-707 (RTWKRK)	21 Ru
6mer-2-708 (RAWVKK)	29 Ru
6mer-2-709 (RIWPKR)	31 Ru
6mer-2-710 (RNKKKK)	14 Ru
6mer-2-711 (KECGRR)	29 Ru
6mer-2-712 (KIPHRR)	29 Ru
6mer-2-713 (RASWRR)	24 Ru
6mer-2-714 (KIDVRK)	30 Ru
6mer-2-715 (RATHRK)	32 Ru
6mer-2-716 (RTWKKR)	18 Ru
6mer-2-717 (KCPGKR)	15 Ru
6mer-2-718 (KYTFKR)	12 Ru
6mer-2-719 (KIKPRR)	29 Ru

Substance	Binding affinity
6mer-2-720 (RATNRK)	29 Ru
6mer-2-721 (RHSKKK)	26 Ru
6mer-2-722 (RNEHRR)	21 Ru
6mer-2-723 (KEDMKR)	23 Ru
6mer-2-724 (KYTMKK)	24 Ru
6mer-2-725 (KAHMKK)	25 Ru
6mer-2-726 (KHHKKK)	25 Ru
6mer-2-727 (RDMIKR)	11 Ru
6mer-2-728 (RMTMKK)	23 Ru
6mer-2-729 (RCPDKR)	30 Ru
6mer-2-730 (RNTHKR)	26 Ru
6mer-2-731 (KASWKK)	19 Ru
6mer-2-732 (KPTWRK)	24 Ru
6mer-2-733 (RTPARK)	29 Ru
6mer-2-734 (KHCHRR)	17 Ru
6mer-2-735 (KMNAKK)	21 Ru
6mer-2-736 (KNNHKK)	29 Ru
6mer-2-737 (KDSVRR)	19 Ru
6mer-2-738 (KPWFKK)	29 Ru
6mer-2-739 (RIHAKK)	17 Ru
6mer-2-740 (KIDIRR)	12 Ru
6mer-2-741 (KNEKKR)	30 Ru
6mer-2-742 (KNNWRR)	32 Ru
6mer-2-743 (KHTMKR)	18 Ru

Substance	Binding affinity
6mer-2-744 (KDHPRK)	19 Ru
6mer-2-745 (KNTERR)	17 Ru
6mer-2-746 (RIKVRK)	26 Ru
6mer-2-747 (RANFRR)	29 Ru
6mer-2-748 (RFDKKR)	28 Ru
6mer-2-749 (KMWKRK)	20 Ru
6mer-2-750 (RKCVKR)	29 Ru
6mer-2-751 (RPHWKR)	12 Ru
6mer-2-752 (KINWRR)	29 Ru
6mer-2-753 (RYEHRR)	18 Ru
6mer-2-754 (KADGRR)	12 Ru
6mer-2-755 (RYNDKK)	18 Ru
6mer-2-756 (KPTNRK)	26 Ru
6mer-2-757 (RIPNKR)	19 Ru
6mer-2-758 (RFSFKK)	18 Ru
6mer-2-759 (RFDEKK)	18 Ru
6mer-2-760 (KIPVKK)	15 Ru
6mer-2-761 (RTEPRK)	29 Ru
6mer-2-762 (KFEERK)	24 Ru
6mer-2-763 (KMKERR)	19 Ru
6mer-2-764 (RNAVKK)	31 Ru
6mer-2-765 (KHSPRK)	23 Ru
6mer-2-766 (RPTFRK)	23 Ru
6mer-2-767 (RICGRK)	13 Ru

Substance	Binding affinity
6mer-2-768 (KYMGRK)	22 Ru
6mer-2-769 (RCPFRK)	13 Ru
6mer-2-770 (KPNMKK)	24 Ru
6mer-2-771 (KITARR)	26 Ru
6mer-2-772 (RHPAKK)	15 Ru
6mer-2-773 (KPDARR)	11 Ru
6mer-2-774 (KFDARK)	17 Ru
6mer-2-775 (KMSMKK)	26 Ru
6mer-2-776 (RFPWRK)	12 Ru
6mer-2-777 (KNDVRR)	31 Ru
6mer-2-778 (RNAPKK)	21 Ru
6mer-2-779 (KAAHRR)	13 Ru
6mer-2-780 (KITIRK)	31 Ru
6mer-2-781 (KTMNRK)	28 Ru
6mer-2-782 (KPWPKR)	18 Ru
6mer-2-783 (RDMVRK)	32 Ru
6mer-2-784 (KAEWRK)	26 Ru
6mer-2-785 (RHCHRR)	31 Ru
